# From the DeepSol protein solubility set
# Assay: soluble on expression in E. coli; label from the status in PepcDB or PDB records
row,Sequence,soluble on expression in E. coli
1,MGHHHHHHSHMPGRSSSNSGSTGFISFSGVESALSSLKNFQACINSGMDTASSVALDLVESQTEVSSEYSMDKAMVEFATLDRQLNHYVKAVQSTINHVKEERPEKIPDLKLLVEKKLLALQSKNSDADFQNNEKFVQFKQQLKELKKQCGLQADREADGTEGVDEDIIVTQSQTNFTCPITKEEMKKPVKNKVCGHTYEEDAIVRMIESRQKRKKKAYCPQIGCSHTDIRKSDLIQDEALRRAIENHNKKRHRHSE,not soluble
2,KKEQEQMLKEERKRELEEKVKAVEDRAKRRKLREERAWLLAQGKELPPELSHLDPNSPMREEKKTKDLFELDDDFTAMYKVLDVVKAHKDSWPFLEPVDESYAPNYYQIIKAPMDISSMEKKLNGGLYCTKEEFVNDMKTMFRNCRKYNGESSEYTKMSDNLERCFHRAMMKHFPGEDGDTDEEFWIREDEKREKRRSRAGRSGGSHVWTRSRDPEGSSRKQQPMENGGKSLPPTRRAPSSGDDQSSSSTQPPREVGTSNGRGFSHPLHCGGTPSQAPFLNQMRPAVPGTFGPLRGSDPATLYGSSGVLEPHPGEPVQQRQPFTMQPPVGINSLRGPRLGTPEEKQMCGGLTHLSNMGPHPGSLQLGQISGPSQDGSMYAPAQFQPGFIPPRHGGAPARPPDFPESSEIPPSHMYRSYKYLNRVHSAVWNGNHGATNQGPLGPDEKPHLGPGPSHQPRTLGHVMDSRVMRPPVPPNQWTEQSGFLPHGVPSSGYMRPPCKSAGHRLQPPPVPAPSSLFGAPAQALRGVQGGDSMMDSPEMIAMQQLSSRVCPPGVPYHPHQPAHPRLPGPFPQVAHPMSVTVSAPKPALGNPGRAPENSEAQEPENDQAEPLPGLEEKPPGVGTSEGVYLTQLPHPTPPLQTDCTRQSSPQERETVGPELKSSSSESADNCKAMKGKNPWPSDSSYPGPAAQGCVRDLSTVADRGALSENGVIGEASPCGSEGKGLGSSGSEKLLCPRGRTLQETMPCTGQNAATPPSTDPGLTGGTVSQFPPLYMPGLEYPNSAAHYHISPGLQGVGPVMGGKSPASHPQHFPPRGFQSNHPHSGGFPRYRPPQGMRYSYHPPPQPSYHHYQRTPYYACPQSFSDWQRPLHPQGSPSGPPASQPPPPRSLFSDKNAMASLQGCETLNAALTSPTRMDAVAAKVPNDGQNPGPEEEKLDESMERPESPKEFLDLDNHNAATKRQSSLSASEYLYGTPPPLSSGMGFGSSAFPPHSVMLQTGPPYTPQRPASHFQPRAYSSPVAALPPHHPGATQPNGLSQEGPIYRCQEEGLGHFQAVMMEQIGTRSGIRGPFQEMYRPSGMQMHPVQSQASFPKTPTAATSQEEVPPHKPPTLPLDQS,soluble
3,MSWQQRVDDALTARRVTDTLRRRYVVSQGAGRWLVANGRQYLNFSSNDYLGLSQHPQIIRAWQQAATRFGVGSGGSGHISGYSVAHQALEEELAQWLGYPRALLFISGFAANQAVITALMKKNDRIVADRLSHASLLEAANLSPAQLRRFIHNDTQHLSRLLQSPCVGQQLVVTEGVYSMDGDSAPLAEIQHIARRHHAWLLVDDAHGIGVTGDEGRGTCWLRGVKPELLVVTFGKGFGVSGAAVLCSESVADYLLQFARHLVYSTSMPPAQAQALSASLAVIRSDEGGERREKLAALVQRFRAGVNASRFTLLNAHSAIQPLIVGDNSRALRLAEALRQQGCWATAIRPPTVPVGTARLRLTLTQAHEACDIDRLLEVLHGAGE,not soluble
4,LLIGFWDCVTCHGSPVDICTAKPRDIPMNPMCIYRSPEKKATEDEGSEQKIPEATNRRVWELSKANSRFATTFYQHLADSKNDNDNIFLSPLSISTAFAMTKLGACNDTLQQLMEVFKFDTISEKTSDQIHFFFAKLNCRLYRKANKASKLVSANRLFGDKSLTFNETYQDISELVYGAKLQPLDFKENAEQSRAAINKWVSNKTEGRITDVIPSEAINELTVLVLVNTIYFKGLWKSKFSPENTRKELFYKADGESCSASMMYQEGKFRYRRVAEGTQVLELPFKGDDITMVLILPKPEKSLAKVEKELTPEVLQEWLDELEEMMLVVHMPRFRIEDGFSLKEQLQDMGLVDLFSPAASALPGIVAEGRDDLYVSDAFHKAFLEVNEEGSEAAASTAVVIAGRSLNPNRVTFKANRPFLVFIREVPLNTIIFMGRVANPCVK,soluble
5,MGSDKIHHHHHHVEGLIFQSSEFGTDEIYANMEEYIMQITRDNYSQYAQMVQQMFGKKASSNDPLAQCDYGNFSLRFKPVDINFTKPNWDTIMTKRDKPAMSEEEFDEAIKELARKEFATGKRDDDAYRKLCMQHGETVSPDRKAIYESSMKKTGGKMNAACMFWDSKGNKTLSYNPESRNWKAISTDEEFARARVFTSIYNDELARLKEEYGEKAKGNVSYSKIKVDISAERSKEKNNNEGNTIDLQI,not soluble
6,MGSDKIHHHHHHMSRTLHAQTHAWLKVFAISARHLSFTRAAEELHVTTGAVSQQIKQLETRLGFKLFRRLPRRLELTDEGQRLAAVVDQAYDAVGQEVRRLRTGVMSGVLRLRCVPSFLAKWLMPRLTRLQARFPDIELHVASEDSNLSLREGEFELAIDLNDGRYAGFQITTLMDEEIFAVCSPQLLRRRPPLVRPDDLGYYPLLHDVTAWRGSHDYAEWEHYLHALGAASVNVQRGYTFNRNHLTVEAAIAGMGVAIARRTLITNELDTGALIAPFAGTVATGKSYGLVYHPGALDDRRVRAVHDWIVEEAARSTAH,not soluble
7,MEVMRGVRVIEGMNGGRFPYCNVVVVGDVVIDAGAGLEVMRKVNASLLVLSHLHPDHSSGAWLFKDVLAPAEGRITLDTLARRFVAPDLVESWKRFISAATGLREFECERYEEGVVVKEPEIVAVPVKGHTMDHHVFLIEQKVLFGADVDLTSFGPFYGNPEADPYLFEREMDKLLDIDFEIFVSAHSKPVFGKELEHHHHHH,not soluble
8,MINNVLVWKQPNISWIHPINIDNSINANNFNFDYLDTLNKLRSSNLKILELRDIADKISDGPFGSQLKVEEYKEQGFPVYRVKNIIDTQILDDDIVYIDAKKQQQLKRSEVLPGDVLITKAGRIGSAAVVPSKFGNGNITSHLVLVRLKKTINNYYLVAYLECKYGKVITGRESYKSTRPELTKNEIGNVIIPIPSPEIQKYIGDKVRKAEELREEAKRLKKEAETFLYEMIQLKPLNDFDKDMFSFVNSNYIDSERLDSEYYKTKYITLEKLLKSKKVTSFKDIIIESKYGASVPADYTMVGIPFIRGNNLTDNEINIDDIVYLNKKLKDEVKDHHVNTGDILITRSGTVGISAVVDEKCDGFSFGSFMIKLRIDMRIWNPYYIAAFLNSFWGKWQIERLQNGAVQQNINLQEIGRIIIPIISKENQDKIEELIKNYINKKRQSKQLIQEAKQDVEDLIEGNFDMSKVKANS,soluble
9,MSEMTKTPTHYRLLSTLKAMGPYLREGQCSERFYLFDCLASCVNDKKSPEKREFWGWWMELTQNEQEMSACYHIGRYTLAGDWVAEAIPESAQAEVNHTQAEFHKKLVKTLRERFEISVTVSTESAPFA,not soluble
10,MGSDKIHHHHHHMIQPVSCICPIAAKLITSRPAQKLLPAPESTTARASEAATSLAAAITAASMCLSTAFILSARVRVTWATWSRISTDTRALSSAITAPPSGCRLNVACSLPRFGRAFQPDARARRTGSFPDRDLISPDLPLPACARAARSWAMTDSRQTPLAQSLPASVPFVGPETHERQRGAPFVARLGANENLFGVSPKAIAAMQASAAEIWKYGDAESYELRAALSALHGIAPEHIMVGEGIDGLLGNLVRLYVGAGDAVVTSLGAYPTFNYHVAGFGGDLHTVPYKDDHEDIKALMAKAHEVGAKLVYLANPDNPMGSWHRGADIVAALDDLPEGSLLVLDEAYVECAPKGTAAPVDVTDPRVIRMRTLSKAYGMAGARVGYAMGAVEVISAFHKVRNHFGMNRCAQIGATEAIKDQAWLAHVQAEIATAREEISRIARENGLTPLPSATNFVAIDCGRDGAFAKAVLEALVARDIFVRMPFAAPQNRCIRVSCGPERERRAFAEALPLALKDAQNGA,not soluble
11,MTEADDPKKKIRARIERDVYSVLLSFQEGATPNQVERRMDDTLGYTYVGKYVQAGVRDMAQLLREHKDVRQNLSGVFSVVANEDNQDLINLISKQKKKKKGGKGAKPIRAATSMGFHNKSGFGYAAHLRSPKPSFMYPASSARANPAKPQATGYRNTVRHPPVRPSTATGHSSFANRSAYSHHTTRSTTVGPVKIAPSATAQRPLLRQPVTVVQRLSSTVAVPVLQPGIDSKCMPSIVDFSNNVKRMMLLEYPADVHLSELTEIYDKHFDVSIDPLQLFSKSWMMFVKTSFKEWLQLGTDGRVEVKEPWFTNFGAALKKSMPPAPEKKKPTTLHEPTSSVASSSLPISQGFRYQIPVVRPIVSVAESMKGLTVSARSVMGTPKDLPGVSNPIKNTARGSNKPRNDLASSKASKDLVVPVMKTTCIKSLEDTSTSSSNPSTLQLSTASTSATDQKLPKMSFGRQIEKGSSIPGRHISLALTEIKNQKVIAASIVGKSAKTSTKVPSTTRSVVLPPMSKGPGLARSRNFSPQQSTTSSIDNECLEAINAALPSDKDSW,soluble
12,MKTDVRWATFNIRYDNPQDSLNNWQYRKDRVCQFIKDHELDIVGMQEVLHNQFQDLRAGLPEYDGIGVGRDDGKTAGEYAPLFYRKDKYEVLDSNTFWLAENPDSVGMMGWDAVCVRIATWAKFKDKATGKIFMAVNTHFDHVGEEARRQSALLIIRKIKEIVGERPAVVTGDFNVTDASDAYETITTNEFVMKDAYKTAARVTGVDYTFHDFARIPAEDCEKIDFIFVTPQVLVKSCEIPAEVPEALLSDHNPQLADLELEHHHHHH,soluble
13,MNPDNLAKLIDELSAMFHPTERDRPHGRWVEAPKSAPPSKRRRSKTAYQLKITLNGIRPPIWRRVLVPGHATFHELHLIIQEAMGWEQAHLYEFDFGSVLIGIPDGWDSFQLEKELMDARRIPLQQWLTEEKQKFLYIYDFGDYWRHTVTVEKIETLPKPLERAACLKGKRACPPEDCGGVYGYLELLEAAAQKDSLADPELRELVDWMYDMKGEDFDPDAFDVEEANERLAYIRL,not soluble
14,SMFNNELMADVHFVVGPPGATRTVPAHKYVLAVGSSVFYAMFYGDLAEVKSEIHIPDVEPAAFLILLKYMYSDEIDLEADTVLATLYAAKKYIVPALAKACVNFLETSL,soluble
15,MKPYQRQFIEFALNKQVLKFGEFTLKSGRKSPYFFNAGLFNTGRDLALLGRFYAEALVDSGIEFDLLFGPAYKGIPIATTTAVALAEHHDKDLPYCFNRKEAKDHGEGGSLVGSALQGRVMLVDDVITAGTAIRESMEIIQAHGATLAGVLISLDRQERGRGEISAIQEVERDYGCKVISIITLKDLIAYLEEKPDMAEHLAAVRAYREEFGV,soluble
16,TANKRHYLEKVSHQGIISALAFDQRGALKQMMAAHQEGEATVTQIETLKVLVSEELTPYASSILLDPEYGLLATKVRANQTGLLLAYEKTGYDATTTSRLPDCLVEWSVKRLKAAGADAIKFLLYYDVDGDEQINLQKQAYIERIGSECTAEDIPFFLELLSYDERISDNNSAAYAKLKPHKVNGAMSVFSDKRFGVDVLKVEVPVNMAYVEGFTEGEVHYSQAEAIKAFQDQEAASHLPYIYLSAGVSAKLFQETLYFAAAAGAQFSGVLCGRATWAGSVPVYITKGEDEARKWLCTEGFQNIDELNRVLEETASPWTEKI,not soluble
17,MAGDPMRRPHMSDATLVYDDDCGFCTWWADFIGERSDLEIVGFSALGDDLLERLPDDYESCSHLVTEEDVYSCGKSIETALTYTELGKPARPLVSFLRQFEDYERFRERAYRQVADNRSKWGKVMSKTPPARRDNSDLEHHHHHH,not soluble
18,MSLEREKVELFKEVLKKLHKGEDVESLKKQFGELLSQIPPFEIPVIEQELLKSGEIDVRDIIKMCDLHVEFFRGAVSEAGREIEKLPNGHPLRTLYEENKQILKDAEALSLLASSMFSLPKDDPRRKQFYEKLVQHVSELHRIGLTHYTREEMLIFPYIERRGITAVPTVLWSKHDETRLKIRLLLNLLKKEESDERLKEEALELSRMLSDMVFRENNILYPTLKVLLTEGEWKAIKMLEKDIGYYKIEVTEEWETPEKPLLPHRNCLRRPIPFRGLGGSRHVYHLQIQEGHHHHHH,soluble
